Patent US20260137799A1, “ANTI-MUC1* ANTIBODY DRUG COMPLEXES AND USES THEREOF” (Minerva Biotechnologies Corporation, priority 2023, published 2026)

Tests used:
[1] = target: MUC1*45 (UniProt P15941 1110-1255); test: cell-based or functional assay
[2] = tested on: T47D-MUC1*; test: PrestoBlue live/dead cell assay, T47D-MUC1*; assay type: cell-based, human; conditions: Presto Blue; 72-120 hour incubation
Procedure: (§1) Another method of measuring the killing activity of ADCs against target cancer cells is to use the PrestoBlue live/dead cell assay (ThermoFisher). Target cancer cells were seeded in a black-walled, clear-bottom 96-well tissue culture plate at a density of 5000 cells/well (100 μL of a 50,000 cells/mL stock) and incubated overnight in a 37° C./5% CO2 incubator. ADCs were prepared as a 2× solution in corresponding cancer cell growth media and 100 μL of each concentration was added to target cancer cells. As a positive control (100% killing) cancer cells were treated with 1 μM Taxol instead of ADC. After 72 hour-120 hour incubation in a 37° C./5% CO2 incubator, cell viability was measure by fluorescence using the PrestoBlue HS assay (ThermoFisher). Briefly, after the incubation period, 20 μL of PrestoBlue HS solution was added. Fluorescence (Ex 560 nm/Em 590 nm) was recorded after 30-90 min. incubation using a Tecan plate reader. Percentage viability was determined by PrestoBlue HS staining and normalized to 1 μM taxol treated cells.
(§2) The normalized fluorescence values were imported into the graph program, Sigma Plot, data plotted as ADC concentration versus normalized fluorescence signal and curve fitted using a four-parameter Hill equation: f=y0+a*x^b/(c^b+x^b) to calculate IC50 values. IC50 values for the ADCs were generally consistent between the xCELLigence and Presto Blue assays.

[3] = tested on: HPAFII; test: PrestoBlue live/dead cell assay, HPAFII; assay type: cell-based, human; conditions: Presto Blue; 72-120 hour incubation
Procedure: as §1, §2

[4] = tested on: HPAFII-MUC1*; test: PrestoBlue live/dead cell assay, HPAFII-MUC1*; assay type: cell-based, human; conditions: Presto Blue; 72-120 hour incubation
Procedure: as §1, §2

[5] = tested on: breast cancer, pancreatic cancer, and lung cancer cell lines; test: Cytotoxicity of ADCs with additional linkers and toxins (FIGS. 30-31); assay type: cell-based; conditions: breast cancer and pancreatic cancer cell
Procedure: FIG. 30 is a table showing cytotoxicity of the indicated MUC1* ADCs against indicated cancer cells. IC50 values were determined from xCELLigence data. FIG. 30 discloses “GGFG” as SEQ ID NO: 160, “GGGG” as SEQ ID NO: 161, “GGVA” as SEQ ID NO: 162, “GGVG” as SEQ ID NO: 163.
FIG. 31 is a table showing cytotoxicity of the indicated MUC1* ADCs against indicated cancer cells. IC50 values were determined from PrestoBlue data.
An anti-MUC1* antibody was conjugated to several toxins via a number of different linkers (compounds VIII-XXII).

[6] = Toxicity in animal studies; assay type: in vivo; conditions: each antibody incorporated into several ADC formats
Source text: Exatecans and deruxtecans can also have bystander effects. […] It is not completely clear whether these side effects are due to the payload or to the HER2 target, which is also expressed on normal lung and normal heart. The first two patients treated with a HER2 targeting CAR T cell product died shortly after the infusion. […] More recently, yet another patient died after being treated with a different HER2-targeting ADC. […] 32CB1, C2 and 20A10 unexpectedly have an extremely high degree of cancer specificity and elicited no toxicities in animal studies, where each antibody was incorporated into several ADC formats.

[7] = tested on: NCI-H1975; test: xCELLigence impedance cytotoxicity, NCI-H1975; assay type: cell-based, human; conditions: Example 9 (FIGS. 35-36); read-out: IC50 for killing of H1975-wt cells
Procedure: (§3) An xCELLigence RTCA MP Instrument (Agilent) was used to assess real-time killing of target cancer cells). In the xCELLigence system, target cancer cells, which are adherent, are plated onto electrode array 96-well plates. Adherent cells insulate the electrode and increase the impedance. The number of adherent cancer cells is directly proportional to impedance. […] Therefore, increasing impedance reflects the growth of the cancer cells and decreasing impedance reflects the killing of the cancer cells.
(§4) Target Cancer cells (Table 9) were seeded onto a multi-electrode well plate at a density of 5000 cells/well (100 μL of a 50,000 cells/mL stock) and incubated for 24 hr in a 37° C./5% CO2 incubator. ADCs were prepared as a 2× solution in corresponding growth media and 100 μL of each concentration was added to target cells. As a positive control (100% cell killing) cells were treated with either 1% triton or 1 μM Taxol instead of ADC. After 40-120 hours incubation in a 37° C./5% CO2 incubator cell killing was assessed. In this assay, impedance is measured in real-time. When the adherent cancer cells are killed and come off the electrode surface, impedance (insulation) decreases.

[8] = tested on: T47D; test: xCELLigence impedance cytotoxicity, T47D; assay type: cell-based, human; conditions: Example 9 (FIGS. 35-36); average over batches for DXd ADCs; read-out: IC50 for killing of breast cancer T47D-wt cells
Procedure: as §3, §4

[9] = tested on: CFPAC1-wt pancreatic cancer cell line; test: xCELLigence impedance cytotoxicity, CFPAC1; assay type: cell-based, human; conditions: Example 9 (FIGS. 35-36); read-out: IC50, CFPAC1-wt pancreatic cancer cells
Procedure: as §3, §4
(§5) To directly compare the C2 and 3C2B1 anti-MUC1* antibodies as ADC targeting domains, a panel of MUC1* positive cancer cell lines representing different cancer types were treated with C2-deruxtecan versus 3C2B1-deruxtecan (FIG. 35) or C2-MC-VA-PAB-exatecan versus 3C2B1-MC-VA-PAB-exatecan (FIG. 36). In some cases, the cancer cells were engineered to express high levels of MUC1*45.

[10] = tested on: H2110-wt lung cancer cell line; test: xCELLigence impedance cytotoxicity, H2110; assay type: cell-based, human; conditions: Example 9 (FIGS. 35-36); read-out: IC50, lung cancer H2110-wt cells
Procedure: as §3, §4, §5

[11] = target: T1, PSMGFR C-10 peptide; test: ELISA on PSMGFR C-10 peptide; Table 4 grade
T1 peptide: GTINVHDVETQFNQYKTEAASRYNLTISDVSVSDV

B1: C2-deruxtecan (antibody, mouse IgG1, kappa)
VH: EVQLEESGGGLVKPGGSLKLSCAASGFTFSGYAMSWVRQTPEKRLEWVATISSGGTYIYYPDSVKGRFTISRDNAKNTLYLQMSSLRSEDTAMYYCARLGGDNYYEYFDVWGAGTTVTVSSAKTTPPSVYAKTTPPSVYPLAPGSAAQTNSMVTLGCLVKGYFPEPVTVTWNSGSLSSGVHTFPAVLQSDLYTLSSSVTVPSSTWPSETVTCNVAHPASSTKVDKKIVPRDCGCKPCICTVPEVSSVFIFPPKPKDVLTITLTPKVTCVVVDISKDDPEVQFSWFVDDVEVHTAQTQPREEQFNSTFRSVSELPIMHQDWLNGKEFKCRVNSAAFPAPIEKTISKTKGRPKAPQVYTIPPPKEQMAKDKVSLTCMITDFFPEDITVEWQWNGQPAENYKNTQPIMDTDGSYFVYSKLNVQKSNWEAGNTFTCSVLHEGLHNHHTEKSLSHSPGK
VL: DIVITQSTASLGVSLGQRATISCRASKSVSTSGYSYMHWYQQRPGQPPKLLIYLASNLESGVPARFSGSGSGTDFTLNIHPVEEEDAATYYCQHSRELPFTFGGGTKLEIKRADAAPTVSADAAPTVSIFPPSSEQLTSGGASVVCFLNNFYPKDINVKWKIDGSERQNGVLNSWTDQDSKDSTYSMSSTLTLTKDEYERHNSYTCEATHKTSTSPIVKSFNRNEC
modifications: deruxtecan (MC-GGFG-AM-DXd) on reduced cysteine thiols of the antibody, sites not stated; deruxtecan (MC-GGFG-AM-DXd) on reduced cysteine thiols of the antibody, sites not stated; average DAR 7.7
[1]
  IC50, killing of H1975 lung cancer cells engineered to express MUC1*45 (xCELLigence): 0.054 µM
  IC50, killing of T47D breast cancer cells engineered to express MUC1*45 (xCELLigence): 0.002 µM

B2: C2 MC-VC-PAB MMAF (conjugate, listed as Mus sp.)
heavy: B1 VH
light: B1 VL
modifications: MC-VC-PAB-MMAF
notes: ADC: antibody C2 conjugated via MC-VC-PAB linker to MMAF
[2]
  IC50: 0.0013 µM
[3]
  IC50: 0.1 µM
[4]
  IC50: 0.09 µM

B3: C2 MC-VA-AM DXd (conjugate, listed as Mus sp.)
heavy: B1 VH
light: B1 VL
modifications: conjugated MC-VA-AM DXd linker-toxin
[5]
  IC50 compared to deruxtecan ADC: three-fold lower

B4: 20A10: anti-MUC1* monoclonal antibody, IgG2b isotype (antibody)
VH: EVMLVESGGGLVKPGGSLKLSCAASGFTFSTYAMSWIRQTPEKRLEWVASIGRAGSTYYSDSVKGRFTISRDNVRNILYLQMSSLRSEDTAMYYCARGPIYNDYDEFAYWGQGTLVTVSAAKTTPPSVYPLAPGCGDTTGSSVTLGCLVKGYFPESVTVTWNSGSLSSSVHTFPALLQSGLYTMSSSVTVPSSTWPSQTVTCSVAHPASSTTVDKKLEPSGPISTINPCPPCKECHKCPAPNLEGGPSVFIFPPNIKDVLMISLTPKVTCVVVDVSEDDPDVRISWFVNNVEVHTAQTQTHREDYNSTIRVVSALPIQHQDWMSGKEFKCKVNNKDLPSPIERTISKIKGLVRAPQVYILPPPAEQLSRKDVSLTCLVVGFNPGDISVEWTSNGHTEENYKDTAPVLDSDGSYFIYSKLDIKTSKWEKTDSFSCNVRHEGLKNYYLKKTISRSPGK
VL: NIMMTQSPSSLAVSAGEKVTMSCKSSQSVLYSSNQKNYLAWYQQKPGQSPKLLIYWASTRESGVPDRFTGSGSGTDFTLTISSVQAEDLAVYYCHQYLSSLTFGAGTKLELKADAAPTVSIFPPSSEQLTSGGASVVCFLNNFYPKDINVKWKIDGSERQNGVLNSWTDQDSKDSTYSMSSTLTLTKDEYERHNSYTCEATHKTSTSPIVKSFNRNEC
[6]
  toxicities in animal studies: no toxicities

B5: 3C2B1-MC-VA-PAB-exatecan (antibody, V domains shown)
VH: EVMLVESGGGLVKPGGSLKLSCAASGITFSTYTMSWVRQTPEKRLEWVATISTGGDKTYYSDSVKGRFTISRDNAKNNLYLQMSSLRSEDTALYYCARGTTAMYYYAMDYWGQGTSVTVSS
VL: DIVLTQSPASLAVSLGQRATISCRASKSISTSDYNYIHWYQQKPGQPPKLLIYLASNLESGVPARFSGSGSGTDFTLNIHPVEEEDAATYYCQHSRELPLTFGAGTKLELK
modifications: MC-VA-PAB-exatecan on reduced cysteine thiols of the antibody, sites not stated; MC-VA-PAB-exatecan on reduced cysteine thiols of the antibody, sites not stated; DAR 5.2
[7]
  IC50: 0.189 µM
[8]
  IC50: 0.077 µM
[9]
  IC50: 0.04 µM
[10]
  IC50: 0.113 µM
[1]
  IC50, killing of H1975 cells engineered to express MUC1*45 (xCELLigence): 0.141 µM
  IC50, killing of T47D cells engineered to express more MUC1*45 (xCELLigence): 0.031 µM

B6: anti-MUC1* antibody 20A10 (antibody, IgG2b, V domains shown)
VH: EVMLVESGGGLVKPGGSLKLSCAASGFTFSTYAMSWIRQTPEKRLEWVASIGRAGSTYYSDSVKGRFTISRDNVRNILYLQMSSLRSEDTAMYYCARGPIYNDYDEFAYWGQGTLVTVSA
VL: NIMMTQSPSSLAVSAGEKVTMSCKSSQSVLYSSNQKNYLAWYQQKPGQSPKLLIYWASTRESGVPDRFTGSGSGTDFTLTISSVQAEDLAVYYCHQYLSSLTFGAGTKLELKA
notes: Humanised form is m25
[11]
  binding result: no binding
